Results from patent US20180250396A1 (FONDAZIONE IRCCS ISTITUTO NAZIONALE DEI TUMORI, published 2018).

Assays:
[1] = target: T1, Recombinant human TRAIL-R2 (R&D Systems) (human, UniProt O14763 54-182, limits assumed); assay: SPR (BIAcore), recombinant TRAIL-R2 immobilised on a CM5 chip, 5 scDb concentrations from 400 to 25 nM
T1 construct: Bought recombinant protein, amine-coupled to a CM5 chip; also called TRAIL-R2 recombinant protein; recombinant receptor

[2] = target: T2, TRAIL-R2 on cells (TRAIL-R2+ human melanoma and other tumor cell lines) (human, UniProt O14763 56-440); assay: soluble scFv on TRAIL-R2+ cells
T2 construct: whole, on cells; Endogenous receptor on cell lines; also called TRAIL-R2+ cells

[3] = target: T3, naive TRAIL-R2 captured from SU-DHL-4 cell lysate (human, UniProt O14763 56-440, limits assumed); assay: single clone phage ELISA (scFv on phage), TRAIL-R2 captured from SU-DHL-4 lysate
T3 construct: also called naïve TRAIL-R2; natural TRAIL-R2

Binder | Kd [1] [nM] | binding result [2] | binding result [3]
scDb 16e2/hUCTH1 (bispecific antibody, Made in E. coli HB2151 periplasm; also called 16e2×hUCTH1 scDb; 16E2×hUCTH1 scDb) EVQLVQSGGGVERPGGSLRLSCAASGFTFDDYGMSWVRQAPGKGLEWVSGINWNGGSTGYADSVKGRVTISRDNAKNSLYLQMNSLRAEDTAVYYCAKILGAGRGWYFDLWGKGTTVTVSSTGGGGSDIQMTQSPSSLSASVGDRVTITCRASQDIRNYLNWYQQKPGKAPKLLIYYTSRLESGVPSRFSGSGSGTDYTLTISSLQPEDFATYYCQQGNTLPWTFGQGTKVEIKRGGGGSGGGGSGGGGSEVQLVESGGGLVQPGGSLRLSCAASGYSFTGYTMNWVRQAPGKGLEWVALINPYKGVSTYNQKFKDRFTISVDKSKNTAYLQMNSLRAEDTAVYYCARSGYYGDSDWYFDVWGQGTLVTVSSGGGGSRSELTQDPAVSVALGQTVRITCQGDSLRSYYASWYQQKPGQAPVLVIYGKNNRPSGIPDRFSGSSSGNTASLTITGAQAEDEADYYCNSRDSSGNHVVFGGGTKLTVLAAAHHHHHHGAAEQKLISEEDLNGAA | 148 | – | –
Clone 8 anti-TRAIL-R2 ScFv isolated with Phage Display (scFv, Tested on phage and as soluble scFv) scFv: EVQLLESGGGLVQPGGSLRLSCAASGFTFSSYAMSWVRQAPGKGLEWVSAISQQGQVTDYADSVKGRFTISRDNSKNTLYLQMNSLRAEDTAVYYCAKRWNRFDYWGQGTLVIVSSGGGGSGGGGSGGGGSTDIQMTQSPSSLSASVGDRVTITCRASQSISSYLNWYQQKPGKAPKLLIYAASGLQSGVPSRFSGSGSGTDFTLTISSLQPEDFATYYCQQHSMSPNTFGQGTKVEIKRAA | – | binds | binds
Clone 44 anti-TRAIL-R2 ScFv isolated with Phage Display (scFv, Tested on phage and as soluble scFv) scFv: QVHLRESGGGLVQPGRSLRLSCAASGFTFDDYAMHWVRQAPGKGLEWVSGISWNSGSISYADSVKGRFTISRDNAKNSLYLQMSSLRSEDTAVYYCARDPNHGGDRRDDALDMWGQGTMVTVSSGGGGSGGGGSGGGGSSELTQDPAVSVALGQTVRITCQGHSLRSYFASWYQQRPRQAPTLVIYGKNNRPSGIPDRFSGSSSGNTASLTITGAQAEDEADYYCGSRDSSSTHRGVFGGGTKLTVLGAA | – | binds | binds
